# Reference: PMC5095531
# T1: native human lipocalin 2 (LCN2) (human), P80188
# T1 chain: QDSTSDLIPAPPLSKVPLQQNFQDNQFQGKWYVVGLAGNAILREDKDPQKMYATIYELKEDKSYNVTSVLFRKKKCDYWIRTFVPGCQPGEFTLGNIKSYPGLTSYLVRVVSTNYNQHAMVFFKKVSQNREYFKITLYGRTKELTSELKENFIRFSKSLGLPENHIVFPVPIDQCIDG
# Molecular target: T1, native human lipocalin 2 (LCN2) …
# Test: non-reducing SDS-PAGE with immunoblot; purified proteins in vitro, non-reducing conditions, anti-human LCN2 antibodies; monomer about 20 kDa, dimer about 40 kDa
# Settings: remark: other sources report otherwise
binder,measurement,value
"native human lipocalin 2 (LCN2), P80188-1 21-198 (natural protein) QDSTSDLIPAPPLSKVPLQQNFQDNQFQGKWYVVGLAGNAILREDKDPQKMYATIYELKEDKSYNVTSVLFRKKKCDYWIRTFVPGCQPGEFTLGNIKSYPGLTSYLVRVVSTNYNQHAMVFFKKVSQNREYFKITLYGRTKELTSELKENFIRFSKSLGLPENHIVFPVPIDQCIDG",stoichiometry N,2
